Test results as given in patent US20030235535A1 (University of California, published 2003).
Blank lines part the entries; values can stand above or below the molecule they belong to.

Assays:
[1] = biological target: T1, mouse PK2 receptor (mouse, UniProt Q8K458 1-381); assay: cell-based or functional assay
T1 construct: Heptahelical G-protein-coupled receptor; also called mouse PKR2

[2] = biological target: PKR2 stably expressed in Chinese Hamster Ovary cells (CHO-PKR2); assay: cell-based or functional assay
[3] = biological target: T1, mouse PK2 receptor; assay: radioligand binding assay with iodinated PK2 (FIG. 11)
Source text: An exemplary assay for determining binding of detectably labeled PK2, PK1 or PK2/PK1 chimera to PK2 receptor or PK1 receptor is the radioligand filter binding assay described in Li et al. Molecular Pharmacology 59:692-698 (2001)). […] A variety of other low- and high-throughput assays suitable for detecting selective binding interactions between a receptor and a ligand are known in the art. Such assays include, for example, fluorescence correlation spectroscopy (FCS) and scintillation proximity assays (SPA) reviewed in Major, J. Receptor and Signal Transduction Res. 15:595-607 (1995); and in Sterrer et al., J. Receptor and Signal Transduction Res. 17:511-520 (1997)). Binding assays can be performed in any suitable assay format including, for example, cell preparations such as whole cells or membranes that contain PK2 receptor or PK1 receptor, or substantially purified PK2 receptor polypeptide or PK1 receptor, either in solution or bound to a solid support.

T1 sequence (Q8K458 whole entry): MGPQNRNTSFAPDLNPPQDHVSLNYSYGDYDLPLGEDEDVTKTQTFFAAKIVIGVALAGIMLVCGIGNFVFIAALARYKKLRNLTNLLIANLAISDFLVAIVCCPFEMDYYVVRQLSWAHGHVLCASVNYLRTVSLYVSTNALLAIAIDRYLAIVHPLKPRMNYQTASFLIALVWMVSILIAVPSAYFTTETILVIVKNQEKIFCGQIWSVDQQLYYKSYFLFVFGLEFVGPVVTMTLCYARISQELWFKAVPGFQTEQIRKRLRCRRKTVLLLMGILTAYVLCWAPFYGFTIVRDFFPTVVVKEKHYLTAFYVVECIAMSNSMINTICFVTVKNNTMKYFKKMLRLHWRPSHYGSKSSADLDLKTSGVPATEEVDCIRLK

calcium ion mobilization (PK2 receptor activation assay), printed as kd [1]: 2.9 nM
Molecule: human PK2 (from UniProt Q9HC23 28-129) (ligand)

EC50, calcium mobilization [2]: 7.3 nM
fold stimulation of CLOCK:BMAL1-mediated transcription of the 2.8 kb PK2 promoter (luciferase reporter) [2]: 4 fold
Molecule: purified recombinant mouse PK2 (from UniProt Q9QXU7 27-128) (ligand)

Kd [3]: ~1 nM
B1: ^125I-human PK2 (ligand)
chain: AVITGACDKDSQCGGGMCCAVSIWVKSIRICTPMGKLGDSCHPLTRKVPFFGRRMHHTCPCLPGLACLRTSFNRFICLAQK
modifications: radioiodinated with ^125I (paragraph 77 describes human PK2 radioiodinated at the core Tyr, citing Li et al. 2001)
notes: also called iodinated PK2
